Tests used:
[1] = target: T1, human RYK on the surface of human tumor cell lines (human, UniProt P34925 46-607); test: flow cytometry, H446 cells (lung), 5 ug/ml 2-D11-Alexa647
T1 construct: whole, on cells; Endogenous expression
Protocol: (§1) Table 1 provides the flow cytometry data on various cancer cell lines stained with fluorochrome-conjugated 2-D11, as depicted in FIG. 8. The name of each cell line is listed in the first column and the tissue of origin is listed in the second column. Binding of the 2-D11 mAb to human RYK was assessed by flow cytometric staining and analysis by staining on ice for 20 minutes with 5 μg/ml of 2-D11 anti-human RYK-Alexa647 conjugated mAb or equal amounts of isotype matched control mAb, washed, and analyzed. The median fluorescence intensity (MFI) of 2-D11 stained cells is listed in the middle column and the MFI of isotype control stained cells are listed in the in the adjacent column. Cell lines were scored as “++”, “+”, or neg (unmarked with “+”) lines based on the ratio of median fluorescence intensity (MFI) of stained cells relative to the MFI of isotype control stained cells (MFIR).
(§2) The name of each cell line is listed in the first column and the tissue of origin is listed in the second column. Binding of the 2-D11 mAb to human RYK was assessed by flow cytometric staining and analysis by staining on ice for 20 minutes with 5 μg/ml of 2-D11 anti-human RYK-Alexa647 conjugated mAb or equal amounts of isotype matched control mAb, washed and analyzed. […]

[2] = target: T1, human RYK on the surface of human tumor …; test: flow cytometry, BT549 cells (breast), 5 ug/ml 2-D11-Alexa647
Protocol: as §1, §2

[3] = target: T1, human RYK on the surface of human tumor …; test: flow cytometry, T24 cells (bladder), 5 ug/ml 2-D11-Alexa647
Protocol: as §1, §2

[4] = target: T2, recombinant human RYK protein used in KinExA (human, UniProt P34925 46-227, limits assumed); test: KinExA 3200, soluble RYK competitor against RYK-coated particles
T2 construct: Legend prints 'RYK2'; also called recombinant human RYK2 protein
T2 sequence (P34925 46-227 limits assumed, form in doubt): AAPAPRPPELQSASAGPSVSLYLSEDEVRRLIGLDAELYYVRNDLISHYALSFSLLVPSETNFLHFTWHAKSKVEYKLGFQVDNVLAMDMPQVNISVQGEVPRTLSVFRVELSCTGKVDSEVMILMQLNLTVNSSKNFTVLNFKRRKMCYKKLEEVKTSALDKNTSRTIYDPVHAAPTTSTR
Protocol: Analysis was performed using a KinExA 3200 instrument. FIG. 7A: The proportion of anti-human RYK mAb bound to particles coated with RYK protein (y-axis) in the presence of increasing molar (M) concentration of soluble RYK competitor (x-axis) is shown for 2-D11 mAb (upper left panel) and 7-H10 mAb (lower left panel).

[5] = target: T1, human RYK on the surface of human tumor …; test: flow cytometry, SH-SY5Y cells (brain), 5 ug/ml 2-D11-Alexa647
Protocol: as §1, §2

[6] = target: T1, human RYK on the surface of human tumor …; test: flow cytometry, RAJI cells (Burkitt NHL), 5 ug/ml 2-D11-Alexa647; line unmarked (no staining)
Protocol: as §1, §2

[7] = target: T1, human RYK on the surface of human tumor …; test: flow cytometry, PC3 cells (prostate), 5 ug/ml 2-D11-Alexa647; line unmarked (no staining)
Protocol: as §1, §2

[8] = target: T1, human RYK on the surface of human tumor …; test: flow cytometry, MEC1 cells (CLL), 5 ug/ml 2-D11-Alexa647; line unmarked (no staining)
Protocol: as §1, §2

[9] = target: T1, human RYK on the surface of human tumor …; test: flow cytometry, H460 cells (lung), 5 ug/ml 2-D11-Alexa647
Protocol: as §1, §2

[10] = target: T1, human RYK on the surface of human tumor …; test: flow cytometry, SK-MEL-2 cells (skin), 5 ug/ml 2-D11-Alexa647; line unmarked (no staining)
Protocol: as §1, §2

[11] = target: T1, human RYK on the surface of human tumor …; test: flow cytometry, SK-MES-1 cells (lung), 5 ug/ml 2-D11-Alexa647; line unmarked (no staining)
Protocol: as §1, §2

[12] = target: T1, human RYK on the surface of human tumor …; test: flow cytometry, NCI H929 cells (melanoma as printed), 5 ug/ml 2-D11-Alexa647; line unmarked (no staining)
Protocol: as §1, §2

[13] = target: T1, human RYK on the surface of human tumor …; test: flow cytometry, DU-145 cells (prostate), 5 ug/ml 2-D11-Alexa647; line unmarked (no staining)
Protocol: as §1, §2

[14] = target: T1, human RYK on the surface of human tumor …; test: flow cytometry, HT144 cells (skin), 5 ug/ml 2-D11-Alexa647
Protocol: as §1, §2

[15] = target: T1, human RYK on the surface of human tumor …; test: flow cytometry, K562 cells (CML), 5 ug/ml 2-D11-Alexa647
Protocol: as §1, §2

[16] = target: T1, human RYK on the surface of human tumor …; test: flow cytometry, JEKO cells (mantle), 5 ug/ml 2-D11-Alexa647; line unmarked (no staining)
Protocol: as §1, §2

[17] = target: T1, human RYK on the surface of human tumor …; test: flow cytometry, SK-OV-3 cells (ovarian), 5 ug/ml 2-D11-Alexa647; line unmarked (no staining)
Protocol: as §1, §2

[18] = target: T1, human RYK on the surface of human tumor …; test: flow cytometry, T47-D cells (breast), 5 ug/ml 2-D11-Alexa647
Protocol: as §1, §2

[19] = target: T1, human RYK on the surface of human tumor …; test: flow cytometry, SW948 cells (colon), 5 ug/ml 2-D11-Alexa647; line unmarked (no staining)
Protocol: as §1, §2

T1 sequence (P34925 46-607 limits assumed, form in doubt): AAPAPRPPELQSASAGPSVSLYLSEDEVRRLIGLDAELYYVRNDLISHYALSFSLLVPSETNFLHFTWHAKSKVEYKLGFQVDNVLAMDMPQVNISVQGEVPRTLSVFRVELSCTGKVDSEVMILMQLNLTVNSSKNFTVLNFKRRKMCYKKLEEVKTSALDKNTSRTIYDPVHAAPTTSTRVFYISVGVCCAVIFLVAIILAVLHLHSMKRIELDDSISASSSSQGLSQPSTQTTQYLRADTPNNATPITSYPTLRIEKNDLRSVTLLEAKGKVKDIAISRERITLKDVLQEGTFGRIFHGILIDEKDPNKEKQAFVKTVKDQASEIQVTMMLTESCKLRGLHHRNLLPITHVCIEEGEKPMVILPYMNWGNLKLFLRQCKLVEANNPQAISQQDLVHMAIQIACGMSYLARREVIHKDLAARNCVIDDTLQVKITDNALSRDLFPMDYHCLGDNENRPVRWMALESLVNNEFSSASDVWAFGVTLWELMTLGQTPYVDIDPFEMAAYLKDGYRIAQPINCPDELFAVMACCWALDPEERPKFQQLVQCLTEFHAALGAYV

B1: 2-D11 anti-human RYK mAb (antibody, V domains shown)
VH: QVQLKESGPGLVAPSQSLSITCSVSGFSLNDYGVNWVRQPPGKDLEWLGMIWGDGVTEYNSTLKSRLSISKDNSKSQVFLKMNNLQTEDTARYYCVRQGSGVWFAHWGQGTLVSVSS
VL: DVLVTQTPLSLPVSLGDQASISCRSSQTIVHSNGNTYLEWYLQKPGQSPKLLIYKVSNRFSGVPDRFSGSGSGTDFTLKISRVEAEDLGIYYCFQGSHVPYTFGGGTKLEIK
notes: Mouse hybridoma mAb, kappa light chain, detected with anti-mouse IgG; also called mAb 2-D11; 2-D11 anti-human RYK-Alexa647 conjugated mAb
For B1, the “MFIR (MFI ratio to isotype control)” value [1] was 2.6, the “MFIR (MFI ratio to isotype control)” value [2] was 3.9 and the “MFIR (MFI ratio to isotype control)” value [3] was 1.6. For the same binder, the Kd [4] was 0.513 nM, the “MFIR (MFI ratio to isotype control)” value [5] was 2 and the “MFIR (MFI ratio to isotype control)” value [6] was 1. The “MFIR (MFI ratio to isotype control)” value [7] was 1.2, the “MFIR (MFI ratio to isotype control)” value [8] was 1.1 and the “MFIR (MFI ratio to isotype control)” value [9] was 1.5. For the same binder, the “MFIR (MFI ratio to isotype control)” value [10] was 1.1, the “MFIR (MFI ratio to isotype control)” value [11] was 1.1 and the “MFIR (MFI ratio to isotype control)” value [12] was 1.2. The “MFIR (MFI ratio to isotype control)” value [13] was 1.3, the “MFIR (MFI ratio to isotype control)” value [14] was 1.6 and the “MFIR (MFI ratio to isotype control)” value [15] was 1.5. The “MFIR (MFI ratio to isotype control)” value [16] was 1.3, the “MFIR (MFI ratio to isotype control)” value [17] was 1.1 and the “MFIR (MFI ratio to isotype control)” value [18] was 2. For the same binder, the “MFIR (MFI ratio to isotype control)” value [19] was 1.1.

Source: patent US20250027945A1 (University of California, published 2025)
